This note sets out measurements from US12215133.

In this test the target is T1, GIP receptor.
T1 sequence (P48546 whole entry, species assumed, looked up): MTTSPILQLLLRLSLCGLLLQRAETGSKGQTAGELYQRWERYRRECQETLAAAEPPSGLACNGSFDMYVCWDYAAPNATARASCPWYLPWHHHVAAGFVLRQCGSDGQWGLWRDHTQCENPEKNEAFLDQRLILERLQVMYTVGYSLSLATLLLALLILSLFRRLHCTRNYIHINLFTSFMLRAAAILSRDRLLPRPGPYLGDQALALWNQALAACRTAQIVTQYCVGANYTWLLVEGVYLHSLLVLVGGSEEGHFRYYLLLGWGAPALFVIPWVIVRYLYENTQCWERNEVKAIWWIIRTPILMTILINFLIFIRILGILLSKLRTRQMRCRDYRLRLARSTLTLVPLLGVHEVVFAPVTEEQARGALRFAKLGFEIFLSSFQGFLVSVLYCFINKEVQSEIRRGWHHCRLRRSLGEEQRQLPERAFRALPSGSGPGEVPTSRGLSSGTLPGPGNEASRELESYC
The test can be described thus: cell-based or functional assay.

Take BGM134 (Semaglutide) (peptide): the cAMP experimental result of GIP receptor, EC50 is greater than 50 nM.

The substance BG121 (LY3298176) (peptide) came in with a cAMP experimental result of GIP receptor, EC50 of 1.79 nM.
